Laboratory results published in patent US5925558.

Key:
[1] = target: GFP N-terminal phosphorylation mutant -3… (Aequorea victoria)
[2] = target: GFP N-terminal phosphorylation mutant -1… (Aequorea victoria)
[3] = target: GFP N-terminal phosphorylation mutant 1MRRRRSII (Aequorea victoria)
[4] = target: GFP N-terminal phosphorylation mutant -2… (Aequorea victoria)
[5] = target: GFP N-terminal phosphorylation mutant 1MSRRRRSI (Aequorea victoria)
[6] = target: wild-type Aequorea green fluorescent protein (Aequorea victoria); conditions: scale: relative rate
[7] = target: GFP N-terminal phosphorylation mutant 1MSKRRDSL (Aequorea victoria); conditions: scale: relative rate
[8] = target: GFP N-terminal phosphorylation mutant 1MRKGSCLF (Aequorea victoria); conditions: scale: relative rate
[9] = target: GFP N-terminal phosphorylation mutant 1MRKGSLLF (Aequorea victoria); conditions: scale: relative rate
[10] = target: GFP N-terminal phosphorylation mutant 1MRRDSCLF (Aequorea victoria); conditions: scale: relative rate
[11] = target: GFP N-terminal phosphorylation mutant 1MRRESLLF (Aequorea victoria); conditions: scale: relative rate
[12] = target: GFP N-terminal phosphorylation mutant 1MSRRDSCF (Aequorea victoria); conditions: scale: relative rate
[13] = target: GFP phosphorylation mutant 172RRGSV (Aequorea victoria); conditions: scale: relative rate
[14] = target: GFP phosphorylation mutant 68RRFSA (Aequorea victoria); conditions: scale: relative rate
[15] = target: GFP phosphorylation mutant 25RRFSV (Aequorea victoria); conditions: scale: relative rate
[16] = target: GFP phosphorylation mutant 155KRKSGI (Aequorea victoria); conditions: scale: relative rate
[17] = target: GFP phosphorylation mutant 214KRDSM (Aequorea victoria); conditions: scale: relative rate

- % Change in fluorescence upon phosphorylation [1]: 70%
- % Change in fluorescence upon phosphorylation [2]: 43%
- % Change in fluorescence upon phosphorylation [3]: 70%
- % Change in fluorescence upon phosphorylation [4]: 15%
- % Change in fluorescence upon phosphorylation [5]: 40%
- Relative rates of phosphorylation (32P incorporation) [6]: 1
- Relative rates of phosphorylation (32P incorporation) [7]: 5.5
- Relative rates of phosphorylation (32P incorporation) [8]: 5.1
- Relative rates of phosphorylation (32P incorporation) [9]: 1.6
- Relative rates of phosphorylation (32P incorporation) [10]: 3.7
- Relative rates of phosphorylation (32P incorporation) [11]: 3
- Relative rates of phosphorylation (32P incorporation) [12]: 2.1
- Relative rates of phosphorylation (32P incorporation) [13]: 1.57
- Relative rates of phosphorylation (32P incorporation) [14]: 0.6
- Relative rates of phosphorylation (32P incorporation) [15]: 1.75
- Relative rates of phosphorylation (32P incorporation) [16]: 2.5
- Relative rates of phosphorylation (32P incorporation) [17]: 1.88
Substance: protein kinase A catalytic subunit (enzyme)
